Reference: patent US20240117018A1

Tests used:
Assay in all cases: cell-based or functional assay
[1] = target: Env of HIV-1 pseudovirus 3365.v2.c2 (HIV-1)
[2] = target: HIV-1 Env pseudovirus 263-8 (HIV-1)
[3] = target: HIV-1 Env pseudovirus 3365.v2.c2 (HIV-1)
[4] = target: HIV-1 Env pseudovirus 3415.v1.c1 (HIV-1)
[5] = target: HIV-1 Env pseudovirus T257-31 (HIV-1)
[6] = target: 1012_11_TC21_3257 Env pseudovirus (HIV-1)
[7] = target: 1054_07_TC4_1499 Env pseudovirus (HIV-1)
[8] = target: 191955_A11 Env pseudovirus (HIV-1)
[9] = target: 6240_08_TA5_4622 Env pseudovirus (HIV-1)
[10] = target: CAP210.2.00.E8 Env pseudovirus (HIV-1)
[11] = target: CAP45.2.00.G3 Env pseudovirus (HIV-1)
[12] = target: CNE20 Env pseudovirus (HIV-1)
[13] = target: CNE21 Env pseudovirus (HIV-1)
[14] = target: CNE30 Env pseudovirus (HIV-1)
[15] = target: CNE52 Env pseudovirus (HIV-1)
[16] = target: CNE53 Env pseudovirus (HIV-1)
[17] = target: Ce0393_C3 Env pseudovirus (HIV-1)
[18] = target: Ce1172_H1 Env pseudovirus (HIV-1)
[19] = target: Ce1176_A3 Env pseudovirus (HIV-1)
[20] = target: Ce2010_F5 Env pseudovirus (HIV-1)
[21] = target: Ce704809221_1B3 Env pseudovirus (HIV-1)
[22] = target: Du172.17 Env pseudovirus (HIV-1)
[23] = target: HIV-0013095-2.11 Env pseudovirus (HIV-1)
[24] = target: HIV-001428-2.42 Env pseudovirus (HIV-1)
[25] = target: HIV-16845-2.22 Env pseudovirus (HIV-1)
[26] = target: Q23.17 Env pseudovirus (HIV-1)
[27] = target: Q259.d2.17 Env pseudovirus (HIV-1)
[28] = target: Q842.d12 Env pseudovirus (HIV-1)
[29] = target: QH0692.42 Env pseudovirus (HIV-1)
[30] = target: SC05_8C11_2344 Env pseudovirus (HIV-1)
[31] = target: TRJO4551.58 Env pseudovirus (HIV-1)
[32] = target: TRO.11 Env pseudovirus (HIV-1)
[33] = target: WITO4160.33 Env pseudovirus (HIV-1)
[34] = target: ZM109F.PB4 Env pseudovirus (HIV-1)
[35] = target: ZM214M.PL15 Env pseudovirus (HIV-1)
[36] = target: ZM233M.PB6 Env pseudovirus (HIV-1)
[37] = target: ZM249M.PL1 Env pseudovirus (HIV-1)

## 10-1074 (antibody)
[1]
  IC50: 0.131 µg/mL
  IC80: 0.45 µg/mL

## VRC01 (antibody)
[2]
  IC50 (Titer in TZM.bl cells): 0.2 µg/mL
  IC80 (Titer in TZM.bl cells): 0.55 µg/mL
[3]
  IC50 (Titer in TZM.bl cells): 0.06 µg/mL
  IC80 (Titer in TZM.bl cells): 0.17 µg/mL
[4]
  IC50 (Titer in TZM.bl cells): 0.06 µg/mL
  IC80 (Titer in TZM.bl cells): 0.15 µg/mL
[5]
  IC50 (Titer in TZM.bl cells): 2.8 µg/mL
  IC80 (Titer in TZM.bl cells): 8.66 µg/mL

## PGT121 (antibody)
[6]
  IC50: 3 ng/mL
  IC80: 0.017 µg/mL
[7]
  IC50: 0.064 µg/mL
  IC80: 0.304 µg/mL
[8]
  IC50: > 50 µg/mL
  IC80: > 50 µg/mL
[9]
  IC50: 0.033 µg/mL
  IC80: 0.127 µg/mL
[10]
  IC50: 26.3 µg/mL
  IC80: > 50 µg/mL
[11]
  IC50: 1.63 µg/mL
  IC80: > 50 µg/mL
[12]
  IC50: < 1 ng/mL
  IC80: 2 ng/mL
[13]
  IC50: 7 ng/mL
  IC80: 0.035 µg/mL
[14]
  IC50: 0.078 µg/mL
  IC80: 0.291 µg/mL
[15]
  IC50: 2.04 µg/mL
  IC80: 18.9 µg/mL
[16]
  IC50: 7 ng/mL
  IC80: 0.024 µg/mL
[17]
  IC50: > 50 µg/mL
  IC80: > 50 µg/mL
[18]
  IC80: 0.036 µg/mL
[19]
  IC50: 0.013 µg/mL
  IC80: 0.035 µg/mL
[20]
  IC50: > 50 µg/mL
  IC80: > 50 µg/mL
[21]
  IC50: 0.025 µg/mL
  IC80: 0.126 µg/mL
[22]
  IC50: 0.033 µg/mL
  IC80: 0.257 µg/mL
[23]
  IC50: > 50 µg/mL
  IC80: > 50 µg/mL
[24]
  IC50: 0.014 µg/mL
  IC80: 0.051 µg/mL
[25]
  IC50: 3.97 µg/mL
  IC80: 44.6 µg/mL
[26]
  IC50: < 1 ng/mL
  IC80: 5 ng/mL
[27]
  IC50: 15.4 µg/mL
  IC80: > 50 µg/mL
[28]
  IC50: 5 ng/mL
[29]
  IC50: 0.302 µg/mL
  IC80: 2.31 µg/mL
[30]
  IC50: 0.019 µg/mL
  IC80: 0.071 µg/mL
[31]
  IC50: 1.31 µg/mL
  IC80: 37.9 µg/mL
[32]
  IC50: 5 ng/mL
  IC80: 0.025 µg/mL
[33]
  IC50: 0.334 µg/mL
  IC80: 2.35 µg/mL
[34]
  IC50: 8.64 µg/mL
  IC80: > 50 µg/mL
[35]
  IC50: 0.46 µg/mL
  IC80: 2.04 µg/mL
[36]
  IC50: 3.69 µg/mL
[37]
  IC50: > 50 µg/mL
  IC80: > 50 µg/mL
